The record followed here is PMC10681739, “High-throughput data and modeling reveal insights into the mechanisms of cooperative DNA-binding by transcription factor proteins”.

One data set concerns the target T1, ETS1 x2 (Homo sapiens, UniProt P14921).
T1 sequence: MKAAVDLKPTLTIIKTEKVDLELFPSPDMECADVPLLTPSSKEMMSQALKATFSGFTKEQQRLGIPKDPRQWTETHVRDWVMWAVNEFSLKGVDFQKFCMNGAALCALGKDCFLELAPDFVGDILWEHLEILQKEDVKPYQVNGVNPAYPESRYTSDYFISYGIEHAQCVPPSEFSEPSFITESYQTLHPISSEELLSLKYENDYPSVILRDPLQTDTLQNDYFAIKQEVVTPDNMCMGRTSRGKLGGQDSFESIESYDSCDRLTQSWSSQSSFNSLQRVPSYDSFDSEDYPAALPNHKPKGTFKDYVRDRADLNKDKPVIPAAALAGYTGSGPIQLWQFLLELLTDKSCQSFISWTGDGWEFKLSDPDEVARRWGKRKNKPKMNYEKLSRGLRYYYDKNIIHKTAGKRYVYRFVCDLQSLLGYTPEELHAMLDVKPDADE
In words: gcPBM; 10 nM ETS1. Particulars: tags: N-terminal GST (pDEST15), kept (PMC6008103); chain copies: 2; label: surface-attached array probe.

A further data set addresses ETS1:RUNX1 (Homo sapiens, UniProt P14921;Q01196 full;full). In words: gcPBM; 1 nM ETS1 + 25 nM RUNX1, anti-ETS1 signal, normalised. Conditions: tags: N-terminal GST (pDEST15), kept (PMC6008103); copies: 1;1; label: surface-attached array probe.

Chain of ETS1:RUNX1 (Q01196 whole entry, one chain of several): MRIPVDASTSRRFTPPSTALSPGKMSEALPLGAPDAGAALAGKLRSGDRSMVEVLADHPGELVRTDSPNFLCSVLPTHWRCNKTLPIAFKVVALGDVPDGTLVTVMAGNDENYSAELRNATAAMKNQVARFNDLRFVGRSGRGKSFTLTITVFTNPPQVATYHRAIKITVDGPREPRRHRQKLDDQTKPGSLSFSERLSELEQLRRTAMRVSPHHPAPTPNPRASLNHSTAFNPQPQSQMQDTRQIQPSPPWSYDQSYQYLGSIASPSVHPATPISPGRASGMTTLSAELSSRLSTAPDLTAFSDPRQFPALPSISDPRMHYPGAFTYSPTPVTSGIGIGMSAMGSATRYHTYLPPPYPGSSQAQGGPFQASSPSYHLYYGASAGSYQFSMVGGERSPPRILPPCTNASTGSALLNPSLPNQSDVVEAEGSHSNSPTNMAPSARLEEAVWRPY

B1: Table S4 A row 2690 (dsDNA)
DNA 1: CGGGCCTCCGCCTTCCGCCCGGAACCCACCCCCGGG
DNA 2: CCCGGGGGTGGGTTCCGGGCGGAAGGCGGAGGCCCG
On to B1, for which, in the data set with ETS1 x2, the binding signal is 1830 PBM fluorescence, median of replicate spots.

B2: Table S4 A row 273 (dsDNA)
DNA 1: TAATACAACTGGGGAAGTCACTTCCTTGCTGAGCTT
DNA 2: AAGCTCAGCAAGGAAGTGACTTCCCCAGTTGTATTA
Take B2: the binding signal in the data set with ETS1 x2 was 849 PBM fluorescence, median of replicate spots.

B3: Table S4 A row 761 (dsDNA)
DNA 1: TTGCCGGATGAGGTTGGTTGTCTCTAATTTCCTCTC
DNA 2: GAGAGGAAATTAGAGACAACCAACCTCATCCGGCAA
For the molecule B3, in the data set with ETS1 x2, the binding signal was 764 PBM fluorescence, median of replicate spots.

B4: Table S2 A row 963 (dsDNA)
DNA 1: GGGTCGCGGCCTTCCGGCGAACGCGGTTACCGTGGA
DNA 2: TCCACGGTAACCGCGTTCGCCGGAAGGCCGCGACCC
B4: the binding signal with ETS1:RUNX1 is 1180 PBM fluorescence, median of replicate spots.

B5: Table S4 A row 1107 (dsDNA)
DNA 1: ACGGCCACCAGGAGGAAACTTCCTCTGAATCTTCCA
DNA 2: TGGAAGATTCAGAGGAAGTTTCCTCCTGGTGGCCGT
For the molecule B5, the binding signal with ETS1 x2 is 872 PBM fluorescence, median of replicate spots.

B6: Table S2 A row 712 (dsDNA)
DNA 1: GACTTTTACGGAAATAGCAGTCCAAAACCGCGTCTA
DNA 2: TAGACGCGGTTTTGGACTGCTATTTCCGTAAAAGTC
Consider B6, for which, in the data set with ETS1:RUNX1, the binding signal is 1340 PBM fluorescence, median of replicate spots.

B7: Table S2 A row 1237 (dsDNA)
DNA 1: AGCCTACATCCTGCACTGCTTAACCACAGCCCGCCT
DNA 2: AGGCGGGCTGTGGTTAAGCAGTGCAGGATGTAGGCT
With B7, in the data set with ETS1:RUNX1, the binding signal was 1360 PBM fluorescence, median of replicate spots.

B8: Table S4 A row 1783 (dsDNA)
DNA 1: ACCCCGGATGGCACCGCGAGTCCCCGTTTCCGACAA
DNA 2: TTGTCGGAAACGGGGACTCGCGGTGCCATCCGGGGT
On to B8, for which the binding signal with ETS1 x2 was 645 PBM fluorescence, median of replicate spots.

B9: Table S4 A row 2604 (dsDNA)
DNA 1: AGGGGGCGGCGGCGGATGCCGGAAGAGTGCCCGCCC
DNA 2: GGGCGGGCACTCTTCCGGCATCCGCCGCCGCCCCCT
As to B9, the binding signal with ETS1 x2 was 1530 PBM fluorescence, median of replicate spots.

B10: Table S2 A row 672 (dsDNA)
DNA 1: ATGTGCCCAAAGGATGTCACCGCAAAGATCATAGGA
DNA 2: TCCTATGATCTTTGCGGTGACATCCTTTGGGCACAT
On to B10, for which the binding signal in the data set with ETS1:RUNX1 is 1400 PBM fluorescence, median of replicate spots.

B11: Table S4 A row 1205 (dsDNA)
DNA 1: CTTAAACTGGAGGAAGTAAGTTTCCGTTAAAATGTG
DNA 2: CACATTTTAACGGAAACTTACTTCCTCCAGTTTAAG
On to B11, for which, in the data set with ETS1 x2, the binding signal was 1760 PBM fluorescence, median of replicate spots.

B12: Table S4 A row 1655 (dsDNA)
DNA 1: CCGCGGGGTCCGGAACTGCTTGTTCCGGCAGTGGAA
DNA 2: TTCCACTGCCGGAACAAGCAGTTCCGGACCCCGCGG
B12: in the data set with ETS1 x2, the binding signal is 1230 PBM fluorescence, median of replicate spots.

B13: Table S4 A row 834 (dsDNA)
DNA 1: AAGGCAGGAGGATGTGCTCGCGGTTTCCTGTGATGT
DNA 2: ACATCACAGGAAACCGCGAGCACATCCTCCTGCCTT
Turning to B13, the binding signal in the data set with ETS1 x2 was 1650 PBM fluorescence, median of replicate spots.

B14: Table S4 A row 2446 (dsDNA)
DNA 1: TCCCACCGTCCCATCCGCTACTTCCCGAAAACTCAA
DNA 2: TTGAGTTTTCGGGAAGTAGCGGATGGGACGGTGGGA
With B14, the binding signal with ETS1 x2 is 1300 PBM fluorescence, median of replicate spots.

B15: Table S2 A row 465 (dsDNA)
DNA 1: TGAGGGGCTCGCCGGGAAATGTGGTTTAGCGGCCCT
DNA 2: AGGGCCGCTAAACCACATTTCCCGGCGAGCCCCTCA
Regarding B15, in the data set with ETS1:RUNX1, the binding signal is 1230 PBM fluorescence, median of replicate spots.

B16: Table S4 A row 2210 (dsDNA)
DNA 1: AAAACACCCGGATGGAGTCGCACTTCCCGAGTCTCG
DNA 2: CGAGACTCGGGAAGTGCGACTCCATCCGGGTGTTTT
As to B16, the binding signal in the data set with ETS1 x2 was 1250 PBM fluorescence, median of replicate spots.

B17: Table S4 A row 1545 (dsDNA)
DNA 1: CTTCGAAGAGATTTCCTCCCGGAAAGGCCGAGCATT
DNA 2: AATGCTCGGCCTTTCCGGGAGGAAATCTCTTCGAAG
On to B17, for which the binding signal in the data set with ETS1 x2 is 1350 PBM fluorescence, median of replicate spots.

B18: Table S4 A row 1213 (dsDNA)
DNA 1: ACAATATCCCAGGAAACAGACATCCGCGTGCTCGCG
DNA 2: CGCGAGCACGCGGATGTCTGTTTCCTGGGATATTGT
Regarding B18, the binding signal in the data set with ETS1 x2 is 1480 PBM fluorescence, median of replicate spots.

B19: Table S4 A row 356 (dsDNA)
DNA 1: TTGGGCCATTGTTTTCCTGCTTCCTCCCTTCAAGCC
DNA 2: GGCTTGAAGGGAGGAAGCAGGAAAACAATGGCCCAA
With B19, the binding signal in the data set with ETS1 x2 was 1590 PBM fluorescence, median of replicate spots.

B20: Table S4 A row 1719 (dsDNA)
DNA 1: GGACCTACAGGAAGACTGACTAGCTTCCTTCGAGCC
DNA 2: GGCTCGAAGGAAGCTAGTCAGTCTTCCTGTAGGTCC
B20: in the data set with ETS1 x2, the binding signal was 912 PBM fluorescence, median of replicate spots.

B21: Table S2 A row 1288 (dsDNA)
DNA 1: TCTCTATGGTTTCCGTTGGGTGTGTGGTTTTTTTGT
DNA 2: ACAAAAAAACCACACACCCAACGGAAACCATAGAGA
For B21, the binding signal in the data set with ETS1:RUNX1 is 1410 PBM fluorescence, median of replicate spots.

B22: Table S4 A row 1074 (dsDNA)
DNA 1: CACGCACATCCCCAGTGAGTAACACTTCCTGAGGGC
DNA 2: GCCCTCAGGAAGTGTTACTCACTGGGGATGTGCGTG
Take B22: in the data set with ETS1 x2, the binding signal is 653 PBM fluorescence, median of replicate spots.

B23: Table S4 A row 1336 (dsDNA)
DNA 1: AGGTCGGAAGCGCTTCTACTGCAGCTCCGGAAAGGG
DNA 2: CCCTTTCCGGAGCTGCAGTAGAAGCGCTTCCGACCT
On to B23, for which, in the data set with ETS1 x2, the binding signal is 806 PBM fluorescence, median of replicate spots.

B24: Table S4 A row 1195 (dsDNA)
DNA 1: GGCGTCGCCGCCGGATTCGACTTCCTGACGTCAGGC
DNA 2: GCCTGACGTCAGGAAGTCGAATCCGGCGGCGACGCC
Turning to B24, in the data set with ETS1 x2, the binding signal was 1940 PBM fluorescence, median of replicate spots.

B25: Table S4 A row 1809 (dsDNA)
DNA 1: AGGGCAGGATGCCAAGATGAACTACATTTCCTGGCA
DNA 2: TGCCAGGAAATGTAGTTCATCTTGGCATCCTGCCCT
In the case of B25, in the data set with ETS1 x2, the binding signal was 1160 PBM fluorescence, median of replicate spots.

B26: Table S4 A row 258 (dsDNA)
DNA 1: GCTTATCACTGAAGGAAACAGGATGCTAAATGTACG
DNA 2: CGTACATTTAGCATCCTGTTTCCTTCAGTGATAAGC
With B26, in the data set with ETS1 x2, the binding signal is 844 PBM fluorescence, median of replicate spots.

B27: Table S4 A row 1105 (dsDNA)
DNA 1: GCCAGAGGGGCGGAAGAACCCGGAAGACCCAGGCAG
DNA 2: CTGCCTGGGTCTTCCGGGTTCTTCCGCCCCTCTGGC
With B27, the binding signal in the data set with ETS1 x2 was 832 PBM fluorescence, median of replicate spots.

B28: Table S4 A row 2621 (dsDNA)
DNA 1: TGGAGCCGGGGGAAGTGGGAGCATCCGCAGCCCCGC
DNA 2: GCGGGGCTGCGGATGCTCCCACTTCCCCCGGCTCCA
On to B28, for which the binding signal in the data set with ETS1 x2 is 698 PBM fluorescence, median of replicate spots.

B29: Table S4 A row 180 (dsDNA)
DNA 1: AGCAATACCAGGAAATGTGTTGCTTCCTAAAGTGAT
DNA 2: ATCACTTTAGGAAGCAACACATTTCCTGGTATTGCT
With B29, the binding signal with ETS1 x2 is 1370 PBM fluorescence, median of replicate spots.

B30: Table S2 A row 1444 (dsDNA)
DNA 1: TGCTTAGCGGGAAGTGCTTACACCACAAAACAAGAC
DNA 2: GTCTTGTTTTGTGGTGTAAGCACTTCCCGCTAAGCA
As for B30, in the data set with ETS1:RUNX1, the binding signal was 1280 PBM fluorescence, median of replicate spots.

B31: Table S4 A row 493 (dsDNA)
DNA 1: TGGTAAACGGAAGAGACCTCTCCTGTTCCGGGAGTA
DNA 2: TACTCCCGGAACAGGAGAGGTCTCTTCCGTTTACCA
B31: in the data set with ETS1 x2, the binding signal was 743 PBM fluorescence, median of replicate spots.

B32: Table S2 A row 1000 (dsDNA)
DNA 1: CCCATTTCCTGCTCTCCAGAGTTAACCACTGAAGTC
DNA 2: GACTTCAGTGGTTAACTCTGGAGAGCAGGAAATGGG
For B32, the binding signal with ETS1:RUNX1 was 1350 PBM fluorescence, median of replicate spots.

B33: Table S4 A row 1584 (dsDNA)
DNA 1: TGTGTCGGACAGGAACTCGGCTTCCTTTGTGCCTCT
DNA 2: AGAGGCACAAAGGAAGCCGAGTTCCTGTCCGACACA
Turning to B33, the binding signal in the data set with ETS1 x2 is 1040 PBM fluorescence, median of replicate spots.

B34: Table S4 A row 1346 (dsDNA)
DNA 1: TTCCCAGGAAGCCCCAAAGCCCTGGCTTCCGCCCAA
DNA 2: TTGGGCGGAAGCCAGGGCTTTGGGGCTTCCTGGGAA
On to B34, for which, in the data set with ETS1 x2, the binding signal was 774 PBM fluorescence, median of replicate spots.

B35: Table S2 A row 378 (dsDNA)
DNA 1: GAAAAAAATGAGCTTCCTTTAACCACAACTGTATTA
DNA 2: TAATACAGTTGTGGTTAAAGGAAGCTCATTTTTTTC
For the molecule B35, in the data set with ETS1:RUNX1, the binding signal is 1320 PBM fluorescence, median of replicate spots.

B36: Table S4 A row 1968 (dsDNA)
DNA 1: GTGATTGGCAGGATCCTGGTATCCGCTAACAGGTAC
DNA 2: GTACCTGTTAGCGGATACCAGGATCCTGCCAATCAC
Regarding B36, the binding signal with ETS1 x2 was 599 PBM fluorescence, median of replicate spots.

B37: Table S4 A row 1993 (dsDNA)
DNA 1: ATCACGGGGCCCATCCGGGGAGGAAGGCGGCACAGG
DNA 2: CCTGTGCCGCCTTCCTCCCCGGATGGGCCCCGTGAT
With B37, the binding signal in the data set with ETS1 x2 is 950 PBM fluorescence, median of replicate spots.

B38: Table S4 A row 1360 (dsDNA)
DNA 1: CAGAACGCACAGGAAGAGAGAGGAAACCAAGTGGGT
DNA 2: ACCCACTTGGTTTCCTCTCTCTTCCTGTGCGTTCTG
For the molecule B38, the binding signal with ETS1 x2 is 1100 PBM fluorescence, median of replicate spots.
